Source: patent US20230331860A1

How the values were obtained:
Test in all cases: FcγR binding, SPR (method per paragraph 74)
[1] = biological target: cyCD64 (cynomolgus monkey)
[2] = biological target: cyCD16 (cynomolgus monkey) (UniProt Q8SPW2)
[3] = biological target: cyCD32a (cynomolgus monkey)
[4] = biological target: cyCD32b (cynomolgus monkey)
hCD16a-F158 (human) = hCD16a-F158 (human) (UniProt P08637)
hCD16a-V158 (human) = hCD16a-V158 (human) (UniProt P08637)
hCD32a-H131 (human) = hCD32a-H131 (human) (UniProt P12318)
Sequence of hCD32a-H131 (human) (P12318 36-218 limits assumed): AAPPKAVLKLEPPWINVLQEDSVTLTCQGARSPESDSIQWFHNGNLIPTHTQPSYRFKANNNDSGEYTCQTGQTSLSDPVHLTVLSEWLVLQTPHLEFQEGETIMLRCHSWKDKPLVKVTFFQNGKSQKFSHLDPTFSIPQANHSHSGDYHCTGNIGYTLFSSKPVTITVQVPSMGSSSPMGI

hCD32a-R131 (human) = hCD32a-R131 (human) (UniProt P12318)
Sequence of hCD32a-R131 (human) (P12318 36-218 H167R limits assumed): as the sequence (P12318 36-218 limits assumed) above, with H132R counted along it

hCD32b (human) = hCD32b (human) (UniProt P31994)
Sequence of hCD32b (human) (P31994 43-217 limits assumed): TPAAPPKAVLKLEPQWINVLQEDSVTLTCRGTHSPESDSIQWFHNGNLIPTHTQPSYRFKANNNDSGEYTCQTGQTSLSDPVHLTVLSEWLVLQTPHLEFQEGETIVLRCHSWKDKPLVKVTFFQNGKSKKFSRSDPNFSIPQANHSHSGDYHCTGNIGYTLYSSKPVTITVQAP

hCD64 (human) = hCD64 (human) (UniProt P12314)
Sequence of hCD64 (human) (P12314 16-288 limits assumed): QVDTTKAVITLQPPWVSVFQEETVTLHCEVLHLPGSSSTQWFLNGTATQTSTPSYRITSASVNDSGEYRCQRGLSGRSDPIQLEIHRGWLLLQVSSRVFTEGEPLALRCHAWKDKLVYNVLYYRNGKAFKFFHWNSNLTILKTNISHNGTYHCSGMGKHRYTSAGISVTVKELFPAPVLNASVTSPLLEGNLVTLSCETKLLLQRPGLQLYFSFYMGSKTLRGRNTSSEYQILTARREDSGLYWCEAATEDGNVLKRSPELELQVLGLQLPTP

Sequence of BMS-986325 (antibody) (heavy): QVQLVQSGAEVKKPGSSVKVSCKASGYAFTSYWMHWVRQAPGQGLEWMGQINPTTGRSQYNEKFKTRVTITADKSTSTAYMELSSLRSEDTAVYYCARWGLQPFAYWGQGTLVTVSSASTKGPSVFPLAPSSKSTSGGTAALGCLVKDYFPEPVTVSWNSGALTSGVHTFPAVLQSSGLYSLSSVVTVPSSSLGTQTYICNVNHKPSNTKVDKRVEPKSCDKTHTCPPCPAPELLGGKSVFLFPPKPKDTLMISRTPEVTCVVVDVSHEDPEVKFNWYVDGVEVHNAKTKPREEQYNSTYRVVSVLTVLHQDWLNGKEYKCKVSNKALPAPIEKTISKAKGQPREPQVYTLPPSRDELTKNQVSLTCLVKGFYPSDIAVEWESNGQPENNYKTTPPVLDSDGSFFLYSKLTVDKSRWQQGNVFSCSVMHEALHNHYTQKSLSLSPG
Sequence of BMS-986325 (antibody) (light): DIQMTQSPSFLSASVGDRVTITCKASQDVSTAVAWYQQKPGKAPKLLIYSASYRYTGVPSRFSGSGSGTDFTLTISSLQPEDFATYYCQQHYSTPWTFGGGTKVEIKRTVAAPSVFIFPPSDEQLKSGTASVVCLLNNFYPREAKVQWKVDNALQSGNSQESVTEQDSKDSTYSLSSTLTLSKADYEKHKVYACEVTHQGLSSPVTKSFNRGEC
Sequence of cyCD16 (cynomolgus monkey) (Q8SPW2 17-208 limits assumed): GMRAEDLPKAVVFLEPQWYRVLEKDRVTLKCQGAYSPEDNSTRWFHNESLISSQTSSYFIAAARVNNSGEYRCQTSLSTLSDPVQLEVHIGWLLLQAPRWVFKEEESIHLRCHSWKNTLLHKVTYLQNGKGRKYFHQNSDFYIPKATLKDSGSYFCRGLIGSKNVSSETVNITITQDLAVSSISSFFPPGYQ
Sequence of hCD16a-V158 (human) (P08637 17-208 F176V limits assumed): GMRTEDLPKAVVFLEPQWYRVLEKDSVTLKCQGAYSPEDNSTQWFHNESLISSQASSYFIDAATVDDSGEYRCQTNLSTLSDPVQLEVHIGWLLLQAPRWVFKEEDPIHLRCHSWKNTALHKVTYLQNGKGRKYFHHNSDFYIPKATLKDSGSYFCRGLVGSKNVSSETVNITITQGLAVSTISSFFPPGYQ
Sequence of hCD16a-F158 (human) (P08637 17-208 limits assumed): as the sequence (P08637 17-208 F176V limits assumed) above, with V160F counted along it

Kd [1] [nM]	fold weaker binding than wild-type human IgG1 control [1] [fold]	Kd [2] [nM]	Kd [3] [nM]	Kd [4] [nM]	Kd (hCD16a-F158 (human)) [µM]	Kd (hCD16a-V158 (human)) [nM]	Kd (hCD32a-H131 (human)) [nM]	Kd (hCD32a-R131 (human)) [nM]	Kd (hCD32b (human)) [µM]	Kd (hCD64 (human)) [nM]	Substance
13	100	–	–	–	–	–	–	–	–	–	BMS-986325 (antibody)
< 0.1	–	164	1520	877	4.43	119	446	665	3.09	< 0.1	wild-type human IgG1 control (antibody)
